Reference: patent US20080014172A1

Target: TNFα (R&D Systems cat# 210-TA) (UniProt P01375)
Experiment: cell-based or functional assay

UniProt P01375, sequence (P01375 77-233 limits assumed): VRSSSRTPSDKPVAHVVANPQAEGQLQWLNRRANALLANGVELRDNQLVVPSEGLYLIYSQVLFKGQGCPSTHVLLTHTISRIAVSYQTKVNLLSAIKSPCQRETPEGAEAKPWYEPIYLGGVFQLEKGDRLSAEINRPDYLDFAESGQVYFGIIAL

TNFα binding protein (TBP)
IC50 on TNFα-induced binding of Fibronectin-coated beads to BEND cells: 0.769 µg/mL
